Source: PMC3243729

Biological target: EGFP-N-Talin1-C-mCherry (UniProt P26039)
Test: single-molecule photobleaching step counting and point spread function fit (TIRF microscopy); living CV1 cells with low expression of EGFP-Talin1-mCherry; EGFP spots more than 500 nm from other EGFPs; bleaching steps counted and the spot shape fitted to a single or a dimeric PSF
Conditions: remark: other sources report otherwise

stoichiometry N: 2
Substance: EGFP-N-Talin1-C-mCherry, P26039 1-2541
